{
  "source": "patent US20230406950A1",
  "about": "(LYVGEN BIOPHARMA, published 2023)",
  "binders": {"B1": {"name": "Ly076 (antibody, V domains shown)", "VH": "QVQLVQSGAEVKKPGASVKVSCKASGYTFTDFWMSWVRQAPGQGLEWMGQIYPNTGTTHSNEKFKGRVTMTRDTSTSTVYMELSSLRSEDTAVYYCARSYHISTTPNWFAYWGQGTLVTVSS", "VL": "DIQMTQSPSSLSASVGDRVTITCKASQNVYKKLEWYQQKPGKVPKVLIYHTNILQTGVPSRFSGSGSGTDYTLTISSLQPEDVATYYCYQWNSGPTFGGGTKVEIK", "notes": "Humanized anti-PD-L1 parent; also called anti-PD-L1 antibody Ly076"}, "B2": {"name": "Ly739 (bispecific antibody, human IgG1, kappa)", "heavy": "not shown", "light": "DIQMTQSPSSLSASVGDRVTITCRASQDIRSNLNWYQQKPGGAVKLLIYYTSRLHSGVPSRFSGSGSGTDYTLTISSLQPEDFATYFCQQSEKLPRTFGGGTKVEIRRTVAAPSVFIFPPSDEQLKSGTASVVCLLNNFYPREAKVQWKVDNALQSGNSQESVTEQDSKDSTYSLSSTLTLSKADYEKHKVYACEVTHQGLSSPVTKSFNRGEC", "notes": "Anti-CD40/CD137: Ly1630 heavy chain fused to Ly253 scFv (VH-VL); Ly1630 light chain"}, "B3": {"name": "Ly1630 (antibody, V domains shown)", "VH": "QVQLVQSGAEVKKPGASVKVSCKASGYTFAGFEMHWVRQAPGQGLEWMGAIDPKTGGTDYNQKFKDRVTMTRDTSISTAYMELSRLRSDDTAVYYCARDLGYFDVWGQGTLVTVSS", "VL": "DIQMTQSPSSLSASVGDRVTITCRASQDIRSNLNWYQQKPGGAVKLLIYYTSRLHSGVPSRFSGSGSGTDYTLTISSLQPEDFATYFCQQSEKLPRTFGGGTKVEIR", "notes": "Humanized anti-CD137 antibody; also called parent anti-CD137 antibody clone Ly1630; CD137 parental antibody Ly1630"}},
  "key": {"[1]": {"molecular_target": "T1, human PD-L1 expressed on cells (human, UniProt Q9NZQ7 19-290)", "T1 construct": "whole, on cells; also called human PD-L1 expressed on CHO cells; Raji-PD-L1 cells", "T1 sequence (Q9NZQ7 19-290)": "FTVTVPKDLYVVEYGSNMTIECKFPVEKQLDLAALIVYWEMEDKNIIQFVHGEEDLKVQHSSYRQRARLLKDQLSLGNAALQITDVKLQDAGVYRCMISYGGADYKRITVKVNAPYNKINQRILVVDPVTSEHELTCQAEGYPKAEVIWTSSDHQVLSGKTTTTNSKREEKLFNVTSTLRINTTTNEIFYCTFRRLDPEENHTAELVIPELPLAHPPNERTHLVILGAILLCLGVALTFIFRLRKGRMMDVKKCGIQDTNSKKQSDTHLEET", "assay": "flow cytometry (FACS), MFI, CHO cells expressing human PD-L1", "protocol": "(§1) Exemplary anti-PD-1/CD137 bi-specific antibodies were analyzed by FACS for their binding properties to human PD-1 and/or human CD137 expressed on CHO cells. Briefly, cultured cells were harvested, counted and cell viability was evaluated using the Trypan Blue exclusion method. Viable cells were then adjusted to 2×10⁶ cells per mL in PBS containing 2% BSA. 100 μL of this cell suspension were further aliquoted per well into a V-bottom 96-well plate. […] After incubation for 2 hours at 4° C., cells were centrifuged (3 min, 1000× g), washed with 250 μL/well BSA-containing FACS Stain Buffer, resuspended and incubated for an additional 1 hour at 4° C. with 100 μL/well fluorochrome-conjugated anti-IgG antibody for detection of the bisepecific antibody. Cells were then washed with 250 μL/well BSA-containing FACS Stain Buffer, resuspended in 100 μL/well FACS Stain Buffer, acquired and analyzed using a FACS machine. Binding of the bispecific antibodies to human PD-1 or human CD137 expressing CHO cells were evaluated and the mean fluorescence intensity is plotted in histograms or dot plots.\n(§2) Exemplary anti-PD-L1/CD137 bi-specific antibodies were analyzed by FACS for their binding properties to human PD-L1 or human CD137 expressed on CHO cells, following the procedures disclosed in Examples 1 above."}, "[2]": {"molecular_target": "T2, human CD137 expressed on cells (human, UniProt Q07011 24-255)", "T2 construct": "whole, on cells; also called 4-1BB; TNFRSF9", "T2 sequence (Q07011 24-255)": "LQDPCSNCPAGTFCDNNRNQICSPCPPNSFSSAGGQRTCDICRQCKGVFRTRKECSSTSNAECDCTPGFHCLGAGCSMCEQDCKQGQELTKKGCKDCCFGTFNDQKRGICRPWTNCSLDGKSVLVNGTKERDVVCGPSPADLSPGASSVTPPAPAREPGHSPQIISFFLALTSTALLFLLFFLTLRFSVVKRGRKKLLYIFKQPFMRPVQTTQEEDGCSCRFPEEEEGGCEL", "assay": "flow cytometry (FACS), MFI, CHO cells expressing human CD137", "protocol": "as §1, §2"}, "[3]": {"molecular_target": "T3, human CD40 expressed on CHO cells (human, UniProt P25942 21-277)", "T3 construct": "whole, on cells", "T3 sequence (P25942 21-277)": "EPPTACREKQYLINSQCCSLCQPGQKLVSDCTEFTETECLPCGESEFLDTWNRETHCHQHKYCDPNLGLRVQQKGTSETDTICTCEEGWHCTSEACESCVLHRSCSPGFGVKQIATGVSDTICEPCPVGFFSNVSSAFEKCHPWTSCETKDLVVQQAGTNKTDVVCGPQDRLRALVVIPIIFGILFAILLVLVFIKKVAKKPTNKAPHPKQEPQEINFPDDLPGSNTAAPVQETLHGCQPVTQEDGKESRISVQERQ", "assay": "FACS on CHO cells expressing human CD40 (MFI)"}, "[4]": {"molecular_target": "T2, human CD137 expressed on cells", "assay": "FACS on CHO cells expressing human CD137 (MFI)", "protocol": "as §1, with “Anti-CD40/CD137” for “Exemplary anti-PD-1/CD137”, “CD40” for “PD-1”, “1000×g),” for “1000× g),”"}, "[5]": {"molecular_target": "T2, human CD137 expressed on cells", "assay": "FACS on CHO cells expressing human CD137 (MFI)", "protocol": "as §1, with “Anti-GITR/CD137” for “Exemplary anti-PD-1/CD137”, “GITR” for “PD-1”", "remark": "listed apart in the source"}, "[6]": {"molecular_target": "T2, human CD137 expressed on cells", "assay": "FACS on CHO cells expressing human CD137 (MFI)", "protocol": "as §1, with “Anti-GITR/CD137” for “Exemplary anti-PD-1/CD137”, “GITR” for “PD-1”", "remark": "listed apart in the source"}, "[7]": {"molecular_target": "T2, human CD137 expressed on cells", "assay": "FACS on CHO cells expressing human CD137 (MFI)", "protocol": "as §1, with “Anti-CD40/CD137” for “Exemplary anti-PD-1/CD137”, “CD40” for “PD-1”, “1000×g),” for “1000× g),”", "remark": "listed apart in the source"}, "[8]": {"molecular_target": "T2, human CD137 expressed on cells", "assay": "FACS on CHO cells expressing human CD137 (MFI)", "protocol": "as §1, with “Anti-OX40/CD137” for “Exemplary anti-PD-1/CD137”, “OX40” for “PD-1”, “1000×g),” for “1000× g),”", "remark": "listed apart in the source"}, "[9]": {"molecular_target": "T2, human CD137 expressed on cells", "assay": "FACS on CHO cells expressing human CD137 (MFI)", "protocol": "as §1, with “Anti-OX40/CD137” for “Exemplary anti-PD-1/CD137”, “OX40” for “PD-1”, “1000×g),” for “1000× g),”", "remark": "listed apart in the source"}, "[10]": {"molecular_target": "T4, human PD-1 expressed on cells (human, UniProt Q15116 25-288)", "T4 construct": "whole, on cells; also called human PD-1 over-expressed on the CHO cells; Jurkat/NFkB-Luci/PD-1 cells", "T4 sequence (Q15116 25-288)": "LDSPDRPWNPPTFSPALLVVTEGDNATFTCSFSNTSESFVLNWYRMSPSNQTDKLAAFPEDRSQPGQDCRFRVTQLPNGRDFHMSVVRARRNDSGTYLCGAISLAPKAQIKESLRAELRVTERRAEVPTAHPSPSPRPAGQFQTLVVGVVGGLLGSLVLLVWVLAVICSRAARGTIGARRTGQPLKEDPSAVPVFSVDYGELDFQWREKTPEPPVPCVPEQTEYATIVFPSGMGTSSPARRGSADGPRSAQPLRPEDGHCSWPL", "assay": "flow cytometry (FACS), MFI, CHO cells expressing human PD-1", "procedure,_shortened": "(§3)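 Viable CHO cells, 2×10⁶ cells/mL in PBS with 2% BSA, incubated with bispecific antibodies for 2 h at 4° C. Bound antibody detected with fluorochrome-conjugated anti-IgG, 1 h at 4° C. Read-out is mean fluorescence intensity by flow cytometry.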"}, "[11]": {"molecular_target": "T2, human CD137 expressed on cells", "assay": "flow cytometry (FACS), MFI, CHO cells expressing human CD137", "procedure,_shortened": "as §3", "remark": "listed apart in the source"}},
  "data": [
    {"binder": "B1", "values": [
      {"measurement": "binding result", "setting": "[1]", "value": "binds"},
      {"measurement": "binding result", "setting": "[2]", "value": "no binding (tested: 10 ug/ml)"}
    ]},
    {"binder": "B2", "values": [
      {"measurement": "binding result", "setting": "[3]", "value": "binds"},
      {"measurement": "EC50 (read off the curve)", "setting": "[4]", "value": "~0.05", "unit": "µg/mL"}
    ]},
    {"binder": "B3", "values": [
      {"measurement": "EC50 (read off the curve)", "setting": "[5]", "value": "~0.1", "unit": "µg/mL"},
      {"measurement": "EC50 (read off the curve)", "setting": "[6]", "value": "~0.1", "unit": "µg/mL"},
      {"measurement": "EC50 (read off the curve)", "setting": "[4]", "value": "~0.03", "unit": "µg/mL"},
      {"measurement": "EC50 (read off the curve)", "setting": "[7]", "value": "~0.03", "unit": "µg/mL"},
      {"measurement": "EC50 (read off the curve)", "setting": "[8]", "value": "~0.1", "unit": "µg/mL"},
      {"measurement": "EC50 (read off the curve)", "setting": "[9]", "value": "~0.09", "unit": "µg/mL"},
      {"measurement": "binding result", "setting": "[10]", "value": "no binding (tested: 10 ug/ml)"},
      {"measurement": "EC50 (read off the curve)", "setting": "[11]", "value": "~0.05", "unit": "µg/mL"},
      {"measurement": "binding result", "setting": "[1]", "value": "no binding (tested: 10 ug/ml)"}
    ]}
  ]
}
